Experimental data taken from paper PMC6948192, “Structural Organization and Dynamics of Homodimeric Cytohesin Family Arf GTPase Exchange Factors in Solution and on Membranes” (Structure(London, England:1993), 2019).

Assays:
[1] = biological target: the molecule itself; experiment: SEC-SAXS; BioCAT 18-ID (APS); samples with 1.2 molar excess of IP4, concentrated to 10-20 mg/ml, Superdex-200 Increase; 20 mM Tris pH 8.0, 150 mM NaCl, 2 mM MgCl2, 0.1% 2-mercaptoethanol, 5% glycerol, 1 μM IP4; peak concentration ∼80 μM (Grp1 14-399), ∼1 mg/mL (Grp1 14-390)
[2] = biological target: the molecule itself; experiment: SEC-SAXS; ARNOFL, no phosphoinositide head group; BM29 beamline (ESRF), Bio Sec300 HPLC column, 600 μg in 60 μL injected

Row | Protein | stoichiometry N [1] | stoichiometry N [2]
1 | Grp1_(14-390), constitutively active construct lacking the polybasic motif (domain or fragment, mouse, UniProt O08967 14-390, looked up, Grp1 (cytohesin-3), mouse, diglycine splice variant, residues 14-390 (lacks the polybasic region); also called fully active Grp1 dimer; source: E. coli BL21(DE3), purified (Ni-NTA, HiTrap Q, Superdex-200)) EDLSLEEREELLDIRRRKKELIDDIERLKYEIAEVMTEIDNLTSVEESKTTQRNKQIAMGRKKFNMDPKKGIQFLIENDLLQSSPEDVAQFLYKGEGLNKTVIGDYLGERDDFNIKVLQAFVELHEFADLNLVQALRQFLWSFRLPGEAQKIDRMMEAFASRYCLCNPGVFQSTDTCYVLSFAIIMLNTSLHNHNVRDKPTAERFITMNRGINEGGDLPEELLRNLYESIKNEPFKIPEDDGNDLTHTFFNPDREGWLLKLGGRVKTWKRRWFILTDNCLYYFEYTTDKEPRGIIPLENLSIREVEDPRKPNCFELYNPSHKGQVIKACKTEADGRVVEGNHVVYRISAPSPEEKEEWMKSIKASISRDPFYDMLAT | 2 | 
2 | Grp1_(14-399), diglycine variant, autoinhibited, in complex with the head group of PIP3 (IP4) (domain or fragment, mouse, UniProt O08967 14-399, looked up, Incubated with a 1.2 molar excess of inositol 1,3,4,5-tetrakisphosphate (IP4) before SEC-SAXS and NS-EM; source: E. coli BL21(DE3), purified (Ni-NTA, HiTrap Q, Superdex-200)) EDLSLEEREELLDIRRRKKELIDDIERLKYEIAEVMTEIDNLTSVEESKTTQRNKQIAMGRKKFNMDPKKGIQFLIENDLLQSSPEDVAQFLYKGEGLNKTVIGDYLGERDDFNIKVLQAFVELHEFADLNLVQALRQFLWSFRLPGEAQKIDRMMEAFASRYCLCNPGVFQSTDTCYVLSFAIIMLNTSLHNHNVRDKPTAERFITMNRGINEGGDLPEELLRNLYESIKNEPFKIPEDDGNDLTHTFFNPDREGWLLKLGGRVKTWKRRWFILTDNCLYYFEYTTDKEPRGIIPLENLSIREVEDPRKPNCFELYNPSHKGQVIKACKTEADGRVVEGNHVVYRISAPSPEEKEEWMKSIKASISRDPFYDMLATRKRRIANKK | 2 | 
3 | Full-length ARNO carrying a 3G sequence in the membrane-binding site (ARNOFL) (natural protein, human, UniProt Q99418 1-400, looked up, Cloned in pET-8c (Antonny et al., 1997); also called Cytohesin-2; source: E. coli, purified (Ni-NTA HisTrap FF, Superdex 200)) MEDGVYEPPDLTPEERMELENIRRRKQELLVEIQRLREELSEAMSEVEGLEANEGSKTLQRNRKMAMGRKKFNMDPKKGIQFLVENELLQNTPEEIARFLYKGEGLNKTAIGDYLGEREELNLAVLHAFVDLHEFTDLNLVQALRQFLWSFRLPGEAQKIDRMMEAFAQRYCLCNPGVFQSTDTCYVLSFAVIMLNTSLHNPNVRDKPGLERFVAMNRGINEGGDLPEELLRNLYDSIRNEPFKIPEDDGNDLTHTFFNPDREGWLLKLGGGRVKTWKRRWFILTDNCLYYFEYTTDKEPRGIIPLENLSIREVDDPRKPNCFELYIPNNKGQLIKACKTEADGRVVEGNHMVYRISAPTQEEKDEWIKSIQAAVSVDPFYEMLAARKKRISVKKKQEQP |  | 2
